Experimental data reported in patent US20190263905A1 (DINONA, published 2019).

Legend:
[1] = target: T1, CD66c (CEACAM6) on CD66c-positive A549 non-small-cell lung cancer cells (UniProt P40199 35-320, limits assumed); test: flow cytometry on A549 cells, relative to chimeric antibody
T1 construct: whole, on cells; also called CD66c antigen; NCA-90
T1 sequence (looked up): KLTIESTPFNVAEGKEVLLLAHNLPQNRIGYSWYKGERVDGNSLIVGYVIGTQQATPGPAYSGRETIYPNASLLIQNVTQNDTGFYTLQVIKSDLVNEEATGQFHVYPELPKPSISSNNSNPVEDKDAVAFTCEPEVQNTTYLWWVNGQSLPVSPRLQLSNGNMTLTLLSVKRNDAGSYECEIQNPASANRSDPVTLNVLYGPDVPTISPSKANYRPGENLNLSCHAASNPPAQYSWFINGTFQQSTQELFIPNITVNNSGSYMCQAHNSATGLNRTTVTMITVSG
Protocol: (§1) Each expressed 96 recombinant humanized antibody was poured and reacted in a test tube containing the same amount ([…]) of CD66c-positive A549 non-small-cell lung cancer cell line at 4° C. for 30 minutes, washed with PBS, and treated with FITC-conjugated goat anti-Human IgG (DiNona Inc, Korea) was added and incubated at 4° C. for 15 minutes. After washing with PBS, the cells were analyzed with a flow cytometer (Stratedigm, S1000EXi) and the results are shown below.
(§2) Among the 96 recombinant humanized antibody candidates, eight were firstly selected based on the degree of expression, the presence of aggregation, and the degree of cell binding (Table 9 and Table 10, FIGS. 3A to 3E).

[2] = target: T1, CD66c (CEACAM6) on CD66c-positive A549 …; test: flow cytometry on CD66c-positive A549 cells, FITC anti-human IgG
Protocol: as §1, §2

[3] = target: T1, CD66c (CEACAM6) on CD66c-positive A549 …; test: flow cytometry on CD66c-positive A549 cells, mean fluorescence
Protocol: as §1, §2

[4] = target: T2, Antigen CD66c (CEACAM6; Sino Biological, Inc.) (UniProt P40199 35-320); test: ELISA, coated CEACAM6 100 ng/well, antibody 3333.33 ng/ml
T2 construct: Bought antigen coated on the ELISA plate; construct not described; also called CD66c antigen; CECACAM6
T2 sequence (looked up): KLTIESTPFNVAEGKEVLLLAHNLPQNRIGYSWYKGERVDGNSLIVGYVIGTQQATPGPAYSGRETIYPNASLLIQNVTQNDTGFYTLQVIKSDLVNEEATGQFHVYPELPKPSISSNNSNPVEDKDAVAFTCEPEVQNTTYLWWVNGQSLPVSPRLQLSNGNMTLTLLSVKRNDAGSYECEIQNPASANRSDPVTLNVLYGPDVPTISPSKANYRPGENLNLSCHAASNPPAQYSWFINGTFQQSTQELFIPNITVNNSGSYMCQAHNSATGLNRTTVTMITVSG
Protocol: (§3) Antigen CD66c (CEACAM6; Sino Biological, Inc.) and CEACAM1 antigen (Sino Biological, Inc.) were coated on a 96-well plate at 100 ng per well and then blocked. The primary antibody was diluted serially three fold from 10 ug/ml at initial concentration and was bound at 37° C. for 1 hour, and goat anti-Human Ig-HRP conjugate (Jackson ImmunoResearch) as a secondary antibody was diluted 1:10,000 and incubated at 37° C. for 30 minutes. The washing was carried out at three times between each step, and the TMB reaction was performed, stopped with 1N H₂SO₄ solution at the same amount of TMB solution (100 ul) and then OD value was measured at 450 nm.
(§4) As a result of the experiment, the binding affinities to CD66c antigen of the five kinds of recombinant humanized antibodies selected from among 96 kinds of recombinant humanized antibodies are shown in FIG. 4a, Table 12, FIG. 4b and Table 13. FIG. 4a and Table 12 show the binding capacity of the antibodies to CECACAM6 CD66c) antigen, and FIG. 4b and Table 13 are the results for the CEACAM1 (CD66a) antigen.

[5] = target: T2, Antigen CD66c (CEACAM6; Sino …); test: ELISA, coated CEACAM6 100 ng/well, antibody 123.46 ng/ml
Protocol: as §3, §4

[6] = target: T2, Antigen CD66c (CEACAM6; Sino …); test: ELISA, coated CEACAM6 100 ng/well, antibody 4.57 ng/ml
Protocol: as §3, §4

[7] = target: T2, Antigen CD66c (CEACAM6; Sino …); test: ELISA, coated CEACAM6 100 ng/well, antibody 1111.11 ng/ml
Protocol: as §3, §4

[8] = target: T2, Antigen CD66c (CEACAM6; Sino …); test: ELISA, coated CEACAM6 100 ng/well, antibody 13.72 ng/ml
Protocol: as §3, §4

[9] = target: T2, Antigen CD66c (CEACAM6; Sino …); test: ELISA, coated CEACAM6 100 ng/well, antibody 1.52 ng/ml
Protocol: as §3, §4

[10] = target: T2, Antigen CD66c (CEACAM6; Sino …); test: ELISA, coated CEACAM6 100 ng/well, antibody 10000.00 ng/ml
Protocol: as §3, §4

[11] = target: T2, Antigen CD66c (CEACAM6; Sino …); test: ELISA, coated CEACAM6 100 ng/well, antibody 0.51 ng/ml
Protocol: as §3, §4

[12] = target: T2, Antigen CD66c (CEACAM6; Sino …); test: ELISA, coated CEACAM6 100 ng/well, antibody 41.15 ng/ml
Protocol: as §3, §4

[13] = target: T2, Antigen CD66c (CEACAM6; Sino …); test: ELISA, coated CEACAM6 100 ng/well, antibody 370.37 ng/ml
Protocol: as §3, §4

[14] = target: T2, Antigen CD66c (CEACAM6; Sino …); test: ELISA, coated CEACAM6 100 ng/well, antibody 0.17 ng/ml
Protocol: as §3, §4

B1: recombinant humanized anti-CD66c antibody Protein ID 3004 (Vk7 + VH5) (antibody, human IgG1, V domains shown)
VH: QVQLVQSGAEVKKPGASVKISCKASGYSFTDYTMNWVRQAHGQNLEWIGLINPFHGGTVSNQRFKVKATLTVDVSTNTAYMELSRLRSDDTAVYYCVRGDPVRHYYALAYWGQGTLVTVSS
VL: DIQMTQSPSTLSASVGDRVTITCGASENVYGTLNWYQRKPGKAPKLLIYGATNLADGVPSRFSGSGSGTEYTLTISSLQPDDFATYYCQNVLSAPYTFGGGTKLEIK
notes: also called #41
- % (% gated × mean) [1]: 85%
- % gated [2]: 71%
- Mean [3]: 541

B2: recombinant humanized anti-CD66c antibody Protein ID 3010 (Vk7 + VH7) (antibody, human IgG1, V domains shown)
VH: QVQLVQSGAEVKKPGASMKISCKASGYSFTDYTMNWVRQAPGQGLEWIGLINPFHGGTVSNQRFKVKATLTVDVSTNTAYMELSRLRSDDTAVYYCVRGDPVRHYYALAYWGQGTLVTVSS
VL: DIQMTQSPSTLSASVGDRVTITCGASENVYGTLNWYQRKPGKAPKLLIYGATNLADGVPSRFSGSGSGTEYTLTISSLQPDDFATYYCQNVLSAPYTFGGGTKLEIK
notes: also called #45
- % (% gated × mean) [1]: 85.8%
- % gated [2]: 70%
- Mean [3]: 554

B3: recombinant humanized anti-CD66c antibody Protein ID 3019 (Vk7 + VH10) (antibody, human IgG1, V domains shown)
VH: QVQLVQSGAEVKKPGASVKVSCKASGYSFTDYTMNWVKQAPGQNLEWIGLINPFHGGTVSNQRFKVKATMTVDVSTNTAYMELSRLRSDDTAVYYCVRGDPVRHYYALAYWGQGTLVTVSS
VL: DIQMTQSPSTLSASVGDRVTITCGASENVYGTLNWYQRKPGKAPKLLIYGATNLADGVPSRFSGSGSGTEYTLTISSLQPDDFATYYCQNVLSAPYTFGGGTKLEIK
notes: also called hu 3019; #51
- OD 450 nm [4]: 3.26 OD
- OD 450 nm [5]: 3.04 OD
- OD 450 nm [6]: 1.32 OD
- OD 450 nm [7]: 3.34 OD
- OD 450 nm [8]: 1.77 OD
- OD 450 nm [9]: 0.95 OD
- % (% gated × mean) [1]: 86.9%
- OD 450 nm [10]: 3.13 OD
- % gated [2]: 70%
- OD 450 nm [11]: 0.8 OD
- OD 450 nm [12]: 2.45 OD
- OD 450 nm [13]: 3.23 OD
- OD 450 nm [14]: 0.68 OD
- Mean [3]: 561

B4: recombinant humanized anti-CD66c antibody Protein ID 3046 (Vk8 + VH7) (antibody, human IgG1, V domains shown)
VH: QVQLVQSGAEVKKPGASMKISCKASGYSFTDYTMNWVRQAPGQGLEWIGLINPFHGGTVSNQRFKVKATLTVDVSTNTAYMELSRLRSDDTAVYYCVRGDPVRHYYALAYWGQGTLVTVSS
VL: DIQMTQSPSTLSASVGDRVTITCRASENVYGTLNWYQRKPGKAPKLLIYGATNLADGMPSRFSGSGSGTEYTLTISSLQPDDFATYYCQNVLSAPYTFGGGTKLEIK
notes: also called #74
- % (% gated × mean) [1]: 82.2%
- % gated [2]: 71%
- Mean [3]: 523
